Reference: patent US20140087995A1 (published 2014)
Numbered stars: 1 amine (or outer) side, 2 acyl side, 3 side chain; on linkers, the order of the positions; unused ones are H or OH. Bridge positions count the residues as written; N and C are the ends. Side chains are listed from the residue outwards. Ends that are not written are not given here. * marks the point of attachment. C20 diacid = O=C(O)CCCCCCCCCCCCCCCCCCC(=O)*; γGlu = O=C(O)[C@H](CCC(=O)[*:2])N[*:1]; AEEA = NCCOCCOCC(=O)O

T1: rat amylin receptor (rat calcitonin receptor + rat RAMP 3) (rat, UniProt P32214 25-516; Q9JJ73 23-147)
T1 construct: whole, on cells; Membranes prepared from transiently transfected BHK tk'ts 13 cells; also called rAmylin-R; rat amylin 3(a) receptor
T1 sequence (looked up) 1: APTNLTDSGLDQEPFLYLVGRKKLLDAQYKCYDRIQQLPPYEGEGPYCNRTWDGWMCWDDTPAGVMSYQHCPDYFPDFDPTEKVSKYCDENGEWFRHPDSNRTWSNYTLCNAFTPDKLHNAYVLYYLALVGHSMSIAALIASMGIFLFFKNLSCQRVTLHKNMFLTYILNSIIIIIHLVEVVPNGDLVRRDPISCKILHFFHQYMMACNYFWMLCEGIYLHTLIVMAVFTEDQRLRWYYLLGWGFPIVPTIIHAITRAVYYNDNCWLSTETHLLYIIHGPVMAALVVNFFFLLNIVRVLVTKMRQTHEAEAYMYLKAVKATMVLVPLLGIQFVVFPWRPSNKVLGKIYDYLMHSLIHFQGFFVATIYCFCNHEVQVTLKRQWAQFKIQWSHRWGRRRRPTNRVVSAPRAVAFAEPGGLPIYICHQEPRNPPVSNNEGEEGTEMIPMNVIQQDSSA
T1 sequence (looked up) 2: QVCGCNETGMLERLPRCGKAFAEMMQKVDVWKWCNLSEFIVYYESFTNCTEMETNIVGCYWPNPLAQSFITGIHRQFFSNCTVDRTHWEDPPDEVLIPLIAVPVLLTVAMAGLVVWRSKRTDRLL

T2: rat calcitonin receptor (rat, UniProt P32214 25-516)
T2 construct: whole, on cells; Membranes prepared from transiently transfected BHK tk'ts 13 cells; also called rCTR; rat calcitonin (a) receptor
T2 sequence (looked up): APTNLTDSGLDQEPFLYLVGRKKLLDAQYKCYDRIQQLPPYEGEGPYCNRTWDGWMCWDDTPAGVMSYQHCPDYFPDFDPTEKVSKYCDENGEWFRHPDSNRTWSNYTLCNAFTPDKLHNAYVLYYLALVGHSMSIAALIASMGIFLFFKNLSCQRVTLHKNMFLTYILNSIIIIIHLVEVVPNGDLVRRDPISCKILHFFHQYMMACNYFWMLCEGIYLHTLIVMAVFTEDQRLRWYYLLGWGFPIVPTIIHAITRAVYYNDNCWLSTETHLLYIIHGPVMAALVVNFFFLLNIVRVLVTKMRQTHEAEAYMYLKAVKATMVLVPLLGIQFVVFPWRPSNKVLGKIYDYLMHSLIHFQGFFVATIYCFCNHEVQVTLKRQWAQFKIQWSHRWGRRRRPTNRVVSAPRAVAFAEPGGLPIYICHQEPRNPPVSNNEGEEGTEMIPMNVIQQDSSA

T3: human calcitonin receptor (human, UniProt P30988 25-474)
T3 construct: whole, on cells; Membranes from stably transfected BHK cells; also called hCTR; hCT
T3 sequence (looked up): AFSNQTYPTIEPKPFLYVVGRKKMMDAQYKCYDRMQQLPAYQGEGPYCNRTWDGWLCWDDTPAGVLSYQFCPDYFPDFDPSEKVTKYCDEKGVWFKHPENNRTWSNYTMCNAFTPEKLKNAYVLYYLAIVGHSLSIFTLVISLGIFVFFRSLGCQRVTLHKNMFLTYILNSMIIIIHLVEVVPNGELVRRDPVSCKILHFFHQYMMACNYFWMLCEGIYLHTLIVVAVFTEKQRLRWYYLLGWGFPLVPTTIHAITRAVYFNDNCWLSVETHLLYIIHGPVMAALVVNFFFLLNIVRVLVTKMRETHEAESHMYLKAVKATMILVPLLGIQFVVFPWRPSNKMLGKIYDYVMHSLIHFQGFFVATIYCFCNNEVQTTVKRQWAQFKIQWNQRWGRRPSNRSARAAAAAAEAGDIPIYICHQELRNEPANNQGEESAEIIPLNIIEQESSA


Legend:
[1] = biological target: T1, rat amylin receptor (rat calcitonin …); experiment: SPA competition vs 125I-rat amylin, membranes (Assay VI)
rat calcitonin receptor [2] = biological target: T2, rat calcitonin receptor; experiment: SPA competition vs 125I-calcitonin, membranes (Assay VIII)
rat calcitonin receptor [3] = biological target: T2, rat calcitonin receptor; experiment: ratio of IC50 on rat calcitonin receptor to IC50 on rat amylin receptor
[4] = biological target: T3, human calcitonin receptor; experiment: ratio of IC50 on human calcitonin receptor to IC50 on human amylin receptor
Protocol: The resulting pellet was resuspended, homogenized and centrifuged (20.000 rpm, 15 min) in a buffer containing 20 mM Na-HEPES and 0.1 mM EDTA (pH 7.4, buffer 2). The resulting pellet was resuspended in buffer 2 and protein concentration was measured (BCA protein Assay, Pierce). The homogenate was kept cold during the whole procedure. The membranes were kept at −80° C. until use. The assay was performed in a 384 well Optiplate (PerkinElmer) in a total volume of 40 ul. Membranes were mixed with SPA beads. Final concentration of membranes 35 ng/μL final and SPA beads was 0.05 mg/well. Test-compounds were dissolved in DMSO and further diluted in assay buffer (50 mM Hepes, pH 7.4, 1 mM CaCl2, 5 mM MgCl₂, 0.1% OA and 0.02% Tween20). […] The final mixture was incubated with shaking at 400 rpm for 120 min at 25° C. prior to centrifugation (1500 rpm, 10 min). Samples were analyzed on TopCounter™ (Packard). The IC₅₀ was calculated using (one site binding competition analysis) GraphPad Prism5 as a measure of receptor affinity.
Membranes were prepared in the following way; the cells were rinsed with PBS and incubated with Versene for approximately 5 min before harvesting. The cells were flushed with PBS and the cell-suspension was centrifuged for 5 min at 1000 rpm. Cells were homogenized (Ultrathurrax) in a buffer containing 20 mM Na-HEPES and 10 mM EDTA (pH 7.4) and centrifuged at 20.000 rpm for 15 min. The resulting pellet was resuspended, homogenized and centrifuged (20.000 rpm, 15 min) in a buffer containing 20 mM Na-HEPES and 0.1 mM EDTA (pH 7.4, buffer 2). The resulting pellet was resuspended in buffer 2 and protein concentration was measured (BCA protein Assay, Pierce). The homogenate was kept cold during the whole procedure. The membranes were kept at −80° C. until use. Assay was performed in a 384 well Optiplate (PerkinElmer) in a total volume of 40 ul. Membranes were mixed with SPA beads.

IC50 [1] [nM]	IC50 (rat calcitonin receptor [2]) [nM]	Ratio rCT/rAmylin binding (rat calcitonin receptor [3])	Ratio hCT/hAmylin binding [4]	Binder
0.182	16.1	88.5	17.6	K([γGlu-γGlu-C20 diacid])CNTATCATQRLAEFLRHSSPNFGAIPSSTNVGPETY-NH2 (disulfide 2-7 (inferred))
5.45	388	71.3	63.4	K([AEEA-AEEA-γGlu-C20 diacid])CNTATCATQRLANFLRHSSPNFGAIPSSTNVGRNTY-NH2 (disulfide 2-7; N-terminus assumed; SMILES CC[C@H](C)[C@H](NC(=O)[C@H](C)NC(=O)CNC(=O)[C@H](Cc1ccccc1)NC(=O)[C@H](CC(N)=O)NC(=O)[C@@H]1CCCN1C(=O)[C@H](CO)NC(=O)[C@H](CO)NC(=O)[C@H](Cc1c[nH]cn1)NC(=O)[C@H](CCCNC(=N)N)NC(=O)[C@H](CC(C)C)NC(=O)[C@H](Cc1ccccc1)NC(=O)[C@H](CC(N)=O)NC(=O)[C@H](C)NC(=O)[C@H](CC(C)C)NC(=O)[C@H](CCCNC(=N)N)NC(=O)[C@H](CCC(N)=O)NC(=O)[C@@H](NC(=O)[C@H](C)NC(=O)[C@@H]1CSSC[C@H](NC(=O)[C@@H](N)CCCCNC(=O)COCCOCCNC(=O)COCCOCCNC(=O)CC[C@H](NC(=O)CCCCCCCCCCCCCCCCCCC(=O)O)C(=O)O)C(=O)N[C@@H](CC(N)=O)C(=O)N[C@@H]([C@@H](C)O)C(=O)N[C@@H](C)C(=O)N[C@@H]([C@@H](C)O)C(=O)N1)[C@@H](C)O)C(=O)N1CCC[C@H]1C(=O)N[C@@H](CO)C(=O)N[C@@H](CO)C(=O)N[C@H](C(=O)N[C@@H](CC(N)=O)C(=O)N[C@H](C(=O)NCC(=O)N[C@@H](CCCNC(=N)N)C(=O)N[C@@H](CC(N)=O)C(=O)N[C@H](C(=O)N[C@@H](Cc1ccc(O)cc1)C(N)=O)[C@@H](C)O)C(C)C)[C@@H](C)O, also called compound 95)
0.529	62.2	118	79.6	K([AEEA-AEEA-γGlu-C20 diacid])CNTATCATQRLANFLRHSSPNFGAIPSSTPVGSNTY-NH2 (disulfide 2-7; N-terminus assumed; SMILES CC[C@H](C)[C@H](NC(=O)[C@H](C)NC(=O)CNC(=O)[C@H](Cc1ccccc1)NC(=O)[C@H](CC(N)=O)NC(=O)[C@@H]1CCCN1C(=O)[C@H](CO)NC(=O)[C@H](CO)NC(=O)[C@H](Cc1c[nH]cn1)NC(=O)[C@H](CCCNC(=N)N)NC(=O)[C@H](CC(C)C)NC(=O)[C@H](Cc1ccccc1)NC(=O)[C@H](CC(N)=O)NC(=O)[C@H](C)NC(=O)[C@H](CC(C)C)NC(=O)[C@H](CCCNC(=N)N)NC(=O)[C@H](CCC(N)=O)NC(=O)[C@@H](NC(=O)[C@H](C)NC(=O)[C@@H]1CSSC[C@H](NC(=O)[C@@H](N)CCCCNC(=O)COCCOCCNC(=O)COCCOCCNC(=O)CC[C@H](NC(=O)CCCCCCCCCCCCCCCCCCC(=O)O)C(=O)O)C(=O)N[C@@H](CC(N)=O)C(=O)N[C@@H]([C@@H](C)O)C(=O)N[C@@H](C)C(=O)N[C@@H]([C@@H](C)O)C(=O)N1)[C@@H](C)O)C(=O)N1CCC[C@H]1C(=O)N[C@@H](CO)C(=O)N[C@@H](CO)C(=O)N[C@H](C(=O)N1CCC[C@H]1C(=O)N[C@H](C(=O)NCC(=O)N[C@@H](CO)C(=O)N[C@@H](CC(N)=O)C(=O)N[C@H](C(=O)N[C@@H](Cc1ccc(O)cc1)C(N)=O)[C@@H](C)O)C(C)C)[C@@H](C)O, also called compound 96)
0.137	24.1	176	74.1	K([AEEA-AEEA-γGlu-C20 diacid])CNTATCATQRLANFLRHSSPNFGAIPSSTNVGPNTY-NH2 (disulfide 2-7; N-terminus assumed; SMILES CC[C@H](C)[C@H](NC(=O)[C@H](C)NC(=O)CNC(=O)[C@H](Cc1ccccc1)NC(=O)[C@H](CC(N)=O)NC(=O)[C@@H]1CCCN1C(=O)[C@H](CO)NC(=O)[C@H](CO)NC(=O)[C@H](Cc1c[nH]cn1)NC(=O)[C@H](CCCNC(=N)N)NC(=O)[C@H](CC(C)C)NC(=O)[C@H](Cc1ccccc1)NC(=O)[C@H](CC(N)=O)NC(=O)[C@H](C)NC(=O)[C@H](CC(C)C)NC(=O)[C@H](CCCNC(=N)N)NC(=O)[C@H](CCC(N)=O)NC(=O)[C@@H](NC(=O)[C@H](C)NC(=O)[C@@H]1CSSC[C@H](NC(=O)[C@@H](N)CCCCNC(=O)COCCOCCNC(=O)COCCOCCNC(=O)CC[C@H](NC(=O)CCCCCCCCCCCCCCCCCCC(=O)O)C(=O)O)C(=O)N[C@@H](CC(N)=O)C(=O)N[C@@H]([C@@H](C)O)C(=O)N[C@@H](C)C(=O)N[C@@H]([C@@H](C)O)C(=O)N1)[C@@H](C)O)C(=O)N1CCC[C@H]1C(=O)N[C@@H](CO)C(=O)N[C@@H](CO)C(=O)N[C@H](C(=O)N[C@@H](CC(N)=O)C(=O)N[C@H](C(=O)NCC(=O)N1CCC[C@H]1C(=O)N[C@@H](CC(N)=O)C(=O)N[C@H](C(=O)N[C@@H](Cc1ccc(O)cc1)C(N)=O)[C@@H](C)O)C(C)C)[C@@H](C)O, also called compound 98)
2.24	159	71.1	104	K([AEEA-AEEA-γGlu-C20 diacid])CNTATCATQRLANFLRHSSPNFGAIPSSTNVGHNTY-NH2 (disulfide 2-7; N-terminus assumed; SMILES CC[C@H](C)[C@H](NC(=O)[C@H](C)NC(=O)CNC(=O)[C@H](Cc1ccccc1)NC(=O)[C@H](CC(N)=O)NC(=O)[C@@H]1CCCN1C(=O)[C@H](CO)NC(=O)[C@H](CO)NC(=O)[C@H](Cc1c[nH]cn1)NC(=O)[C@H](CCCNC(=N)N)NC(=O)[C@H](CC(C)C)NC(=O)[C@H](Cc1ccccc1)NC(=O)[C@H](CC(N)=O)NC(=O)[C@H](C)NC(=O)[C@H](CC(C)C)NC(=O)[C@H](CCCNC(=N)N)NC(=O)[C@H](CCC(N)=O)NC(=O)[C@@H](NC(=O)[C@H](C)NC(=O)[C@@H]1CSSC[C@H](NC(=O)[C@@H](N)CCCCNC(=O)COCCOCCNC(=O)COCCOCCNC(=O)CC[C@H](NC(=O)CCCCCCCCCCCCCCCCCCC(=O)O)C(=O)O)C(=O)N[C@@H](CC(N)=O)C(=O)N[C@@H]([C@@H](C)O)C(=O)N[C@@H](C)C(=O)N[C@@H]([C@@H](C)O)C(=O)N1)[C@@H](C)O)C(=O)N1CCC[C@H]1C(=O)N[C@@H](CO)C(=O)N[C@@H](CO)C(=O)N[C@H](C(=O)N[C@@H](CC(N)=O)C(=O)N[C@H](C(=O)NCC(=O)N[C@@H](Cc1c[nH]cn1)C(=O)N[C@@H](CC(N)=O)C(=O)N[C@H](C(=O)N[C@@H](Cc1ccc(O)cc1)C(N)=O)[C@@H](C)O)C(C)C)[C@@H](C)O, also called compound 97)
